Reference: patent US20180092964A1

Target: VLDL receptor (VLDLR) on U937 clone 10 cells (UniProt P98155)
Assay: cell-based or functional assay

Substance: low endotoxin recombinant RAP (LDL Receptor-Associated Protein) (from UniProt P30533 35-357)
- HIV-1 infectivity of U937 clone 10 cells preconditioned with RAP for 15 min, then with α1PI, and cultured for 8 days: 93%
